One series in a line: Stability in human serum. The class given is in vitro ADME. The settings on record: human serum (diluted 5x), 37 °C, n = 3. On the procedure: (§1) The stability of [^99mTc]Tc-iPD-L1 and [^99mTc]Tc-WL12 was evaluated by diluting the samples in human serum (5x). The radiopharmaceuticals (n = 3) were heated at 37 °C and analyzed at 0.5, 3, and 24 h for radiochemical purity by size-exclusion radio-HPLC (ProteinPak 300SW, Waters Corporation, Milford, CT, USA).
(§2) The radioactivity from [^99mTc]Tc-iPD-L1 bound to serum proteins was 1.3 ± 0.8% at 30 min, 3.2 ± 1.3% at 3 h, and 7.6 ± 1.9% at 24 h. High radiochemical stability (>90% at 24 h) was also observed. In the case of [^99mTc]Tc-WL12, protein binding was 1.0 ± 0.4% at 30 min, 3.3 ± 0.9% at 3 h, and 6.0 ± 1.3% at 24 h, with a radiochemical purity of >90% at 24 h. Therefore, there was no significant difference […] in protein binding and serum stability between the radiotracers.

A further series is described as follows: Serum protein binding. Format: in vitro ADME. Particulars: human serum (diluted 5x), 37 °C, size-exclusion radio-HPLC, n = 3. On the procedure:
as §1, §2
On the technique in general: In gel filtration, larger molecules generally elute earlier.

Series [1] concerns HCT116 cells (PD-L1 positive). Description: Cellular uptake and internalization, HCT116. Format: cell-based, human. Particulars: HCT116, 1 × 10^6 cells/tube, 7.4 kBq, 37 °C, 1 h, n = 3. Here is the method: (§3) Human colorectal cancer HCT116 (PD-L1 positive: 45.1 nTPM), human lung cancer HCC827 (PD-L1 positive: 27.1 nTPM), and […] C6 glioma cells (PD-L1 negative control) were obtained from ATCC (Atlanta, GA, USA). FBS, RPMI, and cell culture medium were obtained from Bovine and Biology (CDMX, MX). Cells were cultured in RPMI medium (5% CO2; 100 µg/mL penicillin, 15% fetal bovine serum, and 100 µg/mL streptomycin; 37 °C).
(§4) Cells diluted in phosphate-buffered saline (PBS) (pH 7.4) (1 × 10^6 cells/tube) received three different treatments: (a) [^99mTc]Tc-iPD-L1 (7.4 kBq) (n = 3), (b) and [^99mTc]Tc-WL12 (7.4 kBq) (n = 3), and (c) ^99mTcO4Na (7.4 kBq) (n = 3). Cells were incubated with each treatment at 37 °C for one hour. After incubation, tubes were measured in a NaI(Tl) detector (NML Inc., Houston, TX, USA) to establish the initial or first activity (100%). The tubes were spun at 500 g for 10 min, rinsed once with PBS, and spun once more. The liquid was removed, and the activity in the button was determined, indicating the percentage of cellular uptake (surface uptake) regarding the initial or first activity. Acetic acid/0.5 M NaCl was added, the tubes were centrifuged, and the activity was measured. The liquid was removed, and activity in button activity represented the percentage of activity internalized by cells relative to uptake activity (internalization fraction of surface uptake). […]

Series [2] has as its system HCC827 cells (PD-L1 positive). The series is described as follows: Cellular uptake and internalization, HCC827. Format: cell-based, human. Particulars: HCC827, 1 × 10^6 cells/tube, 7.4 kBq, 37 °C, 1 h, n = 3. Here is the method: as §3, §4
The test system of series [3] is HCC827 lung cancer tumors. The series is described as follows: Biodistribution in mice bearing HCC827 tumors. Format: in vivo, mouse. The settings on record: mean over 1, 3 and 24 h. Here is the method: All animal procedures were performed following the Institutional Animal Care and Use Committee requirements under an approved protocol (No. 09-2018-2022) and the Ethical Regulations for the Handling of Laboratory Animals (NOM-062-ZOO-1999). Male Nu/Nu (CINVESTAV, I.PN., Mexico City, Mexico) mice, 6–8 weeks of age, were maintained in an aseptic barrier environment. Mice were inoculated by subcutaneous injection of 1 × 10^6 HCC827 cells/0.1 mL PBS into the upper back. Injection sites were monitored periodically for tumor progression. On day ten after tumor cell inoculation, animals were injected with 18.5 MBq (50 µL) of [^99mTc]Tc-iPD-L1 or 18.5 MBq (50 µL) of [^99mTc]Tc-WL12 by tail vein injection. The animals were sacrificed at 1, 3, and 24 h (n = 3). Kidneys, lungs, heart, liver, spleen, pancreas, small intestine, stomach, muscle, and blood and tumor samples were dissected. Radioactivity was determined in a sodium iodide detector. The results were stated as % injected dose/g.
After 24 h, the activity in tumors was 3.21 ± 0.45 %ID/g ([^99mTc]Tc-WL12) and 5.65 ± 0.98 %ID/g ([^99mTc]Tc-iPD-L1). […] This behavior is related to the higher lipophilicity of [^99mTc]Tc-iPD-L1 compared to [^99mTc]Tc-WL12.

For the compound `CCCC[C@H]1C(=O)N(C)[C@@H](CCCC)C(=O)N[C@@H](CCCNC(=O)c2ccc(NN)nc2)C(=O)N[C@H](C(=O)NCC(N)=O)CSCC(=O)N[C@@H](Cc2ccc(O)cc2)C(=O)N(C)[C@@H](C)C(=O)N[C@@H](CC(N)=O)C(=O)N2CCC[C@H]2C(=O)N[C@@H](Cc2c[nH]cn2)C(=O)N[C@@H](CC(C)C)C(=O)N2C[C@H](O)C[C@H]2C(=O)N[C@@H](Cc2c[nH]c3ccccc23)C(=O)N[C@@H](CO)C(=O)N[C@@H](Cc2cn(C)c3ccccc23)C(=O)N1C` [[^99mTc]Tc-WL12, metal not drawn], in “Stability in human serum” (30 min, 3 h and 24 h, size-exclusion radio-HPLC), the “stability in human serum” value is “remained stable”. Further, the remaining at 24 h in “Stability in human serum” (24 h, size-exclusion radio-HPLC (ProteinPak 300SW), read-out: radiochemical stability / radiochemical purity in human serum at 24 h) was greater than 90%. Further, the “radioactivity bound to serum proteins at 30 min” value in “Serum protein binding” (30 min) is on record as 1.0 ± 0.4%. For the same compound, the “radioactivity bound to serum proteins at 3 h” value in the series “Serum protein binding” (3 h) turned out to be 3.3 ± 0.9%. Moreover, in “Serum protein binding” (24 h), the “radioactivity bound to serum proteins at 24 h” value was determined as 6.0 ± 1.3%. The “uptake and internalization compared to C6 cells (PD-L1 negative)” value in series [1] and in series [2] was “significantly higher” in each case. The “mean percentage of tumor uptake over time (two-way ANOVA)” value in series [3] amounted to 6.617.

The values are drawn from paper PMC10747430, “^99mTc-Labeled Cyclic Peptide Targeting PD-L1 as a Novel Nuclear Imaging Probe” (Pharmaceutics, 2023).
